This experiment addresses T1, STN1-TEN1 complex (human, UniProt Q9H668 1-368; Q86WV5 1-123).
T1 construct: STN1, human, full length (flSTN1); TEN1, human, full length (flTEN1); source: E. coli ScarabXpress T7 lac, co-lysed, purified as a complex (Ni-NTA, amylose, HS and HQ)
T1 sequence (looked up) 1: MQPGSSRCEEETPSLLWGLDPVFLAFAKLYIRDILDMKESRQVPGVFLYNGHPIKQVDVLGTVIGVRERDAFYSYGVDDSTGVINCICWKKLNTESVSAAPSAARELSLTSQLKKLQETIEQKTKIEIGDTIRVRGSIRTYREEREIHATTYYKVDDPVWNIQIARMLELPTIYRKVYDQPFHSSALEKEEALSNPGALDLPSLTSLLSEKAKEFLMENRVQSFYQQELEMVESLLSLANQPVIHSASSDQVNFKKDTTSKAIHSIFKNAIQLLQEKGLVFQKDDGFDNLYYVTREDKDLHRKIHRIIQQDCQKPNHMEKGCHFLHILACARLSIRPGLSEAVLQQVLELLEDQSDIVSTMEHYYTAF
T1 sequence (looked up) 2: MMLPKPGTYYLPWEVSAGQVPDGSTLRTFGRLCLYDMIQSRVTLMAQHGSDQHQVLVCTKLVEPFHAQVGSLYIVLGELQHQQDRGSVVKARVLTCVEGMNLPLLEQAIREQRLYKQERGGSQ
Put plainly: pull-down; purified STN1-TEN1 complex incubated with purified CTC1 (1002-end) at 4 °C; complex bound to an amylose column and analysed by SDS-PAGE. The note with it: both partners purified.

B1: CTC1 (1002-end) (domain or fragment, human, UniProt Q2NKJ3 1002-1217, looked up)
chain: TISIPLPHIYLAELLQGGQSPFQATASCHIVSVFSLQLFWVCAYCTSICRQGKCTRLGSTCPTQTAISQAIIRLLVEDGTAEAVVTCRNHHVAAALGLCPREWASLLDFVQVPGRVVLQFAGPGAQLESSARVDEPMTMFLWTLCTSPSVLRPIVLSFELERKPSKIVPLEPPRLQRFQCGELPFLTHVNPRLRLSCLSIRESEYSSSLGILASSC
notes: CTC1, human, residues 1002-end; also called CTC1 residues 1002-end; source: E. coli ScarabXpress T7 lac, purified (Ni-NTA, HS and HQ)
On to B1, for which the binding result was “binds”.

The values above are taken from paper PMC7969954, “Pol α-primase dependent nuclear localization of the mammalian CST complex” (Communications Biology, 2021).
